System: GAL4/CfEcR-DEF and pFRLuc in NIH3T3 cells
Format: cell-based, mouse
Conditions: 0.04-25 μM GS™-E, compared to wild-type HsRXRβ-EF
Description: The resulting PCR nucleic acid products encoding the mutant RXR ligand binding domains were then each fused to a VP16 transactivation domain as described in Examples 1.3 and 1.6 above. The VP16/mutant RXR receptor constructs were tested for activity by transfecting them into NIH3T3 cells along with GAL4/CfEcR-DEF and pFRLuc in the presence of non-steroid ligand.
DNAs corresponding to the various switch constructs outlined in Example 1.1-1.6 were transfected into mouse NIH3T3 cells (ATCC) as follows. Standard methods for culture and maintenance of the cells were followed. […] Superfect™ (Qiagen Inc.) was used as the transfection reagent. For 12-well plates, 4 μl of Superfect™ was mixed with 100 μl of growth medium. One μg of reporter construct and 0.25 μg of each receptor construct of the receptor pair to be analyzed were added to the transfection mix. […] The cells were harvested and reporter activity was assayed.
Cells were harvested 40 hours after adding ligand. […] Twenty μl of lysate were assayed. […]
The cells were harvested and reporter activity was assayed as described above.
As discussed above, a CfEcR-based gene regulation system is ligand dependent when RXRs are used as the heterodimeric partner and ligand independent when USPs are used as the heterodimeric partner. However, reporter gene expression is induced at very high levels when CfUSP is used as the heterodimeric partner. To improve RXR as heterodimeric partner, Applicants have aligned the polypeptide sequences of several USP and RXR ligand binding domains (domains EF) and identified amino acid residues that are different between these two nuclear receptor family members. In particular, Applicants identified residues that are conserved in all USPs but are different in RXRs and mutated these residues in HsRXRβ. […] The cells were harvested and reporter activity was assayed as described above.

Molecule	non-steroid ligand sensitivity
D450E/A451V/K452R: HsRXRβ ligand binding domain triple substitution mutant (protein) MGPKKKRKVAPPTDVSLGDELHLDGEDVAMAHADALDDFDLDMLGDGDSPGPGFTPHDSAPYGALDMADFEFEQMFTDALGIDEYGGEFPAPEEMPVDRILEAELAVEQKSDQGVEGPGGTGGSGSSPNDPVTNICQAADKQLFTLVEWAKRIPHFSSLPLDDQVILLRAGWNELLIASFSHRSIDVRDGILLATGLHVHRNSAHSAGVGAIFDRVLTELVSKMRDMRMDKTELGCLRAIILFNPEVRGLSNPSEVEVLREKVYASLETYCKQKYPEQQGRFAKLLLRLPALRSIGLKCLEHLFFFKLIGDTPIDTFLMEMLEAPHQLA	improved non-steroid ligand sensitivity
C475T/K476R/Q477T/K478T/Y479H: HsRXRβ ligand binding domain quintuple substitution mutant (protein) MGPKKKRKVAPPTDVSLGDELHLDGEDVAMAHADALDDFDLDMLGDGDSPGPGFTPHDSAPYGALDMADFEFEQMFTDALGIDEYGGEFPAPEEMPVDRILEAELAVEQKSDQGVEGPGGTGGSGSSPNDPVTNICQAADKQLFTLVEWAKRIPHFSSLPLDDQVILLRAGWNELLIASFSHRSIDVRDGILLATGLHVHRNSAHSAGVGAIFDRVLTELVSKMRDMRMDKTELGCLRAIILFNPDAKGLSNPSEVEVLREKVYASLETYTRTTHPEQQGRFAKLLLRLPALRSIGLKCLEHLFFFKLIGDTPIDTFLMEMLEAPHQLA	improved non-steroid ligand sensitivity
S455K/N456S/P457A/S458Q: HsRXRβ ligand binding domain quadruple substitution mutant (protein) MGPKKKRKVAPPTDVSLGDELHLDGEDVAMAHADALDDFDLDMLGDGDSPGPGFTPHDSAPYGALDMADFEFEQMFTDALGIDEYGGEFPAPEEMPVDRILEAELAVEQKSDQGVEGPGGTGGSGSSPNDPVTNICQAADKQLFTLVEWAKRIPHFSSLPLDDQVILLRAGWNELLIASFSHRSIDVRDGILLATGLHVHRNSAHSAGVGAIFDRVLTELVSKMRDMRMDKTELGCLRAIILFNPDAKGLKSAQEVEVLREKVYASLETYCKQKYPEQQGRFAKLLLRLPALRSIGLKCLEHLFFFKLIGDTPIDTFLMEMLEAPHQLA	improved non-steroid ligand sensitivity
E481D/Q482E/Q483P: HsRXRβ ligand binding domain triple substitution mutant (protein) MGPKKKRKVAPPTDVSLGDELHLDGEDVAMAHADALDDFDLDMLGDGDSPGPGFTPHDSAPYGALDMADFEFEQMFTDALGIDEYGGEFPAPEEMPVDRILEAELAVEQKSDQGVEGPGGTGGSGSSPNDPVTNICQAADKQLFTLVEWAKRIPHFSSLPLDDQVILLRAGWNELLIASFSHRSIDVRDGILLATGLHVHRNSAHSAGVGAIFDRVLTELVSKMRDMRMDKTELGCLRAIILFNPDAKGLSNPSEVEVLREKVYASLETYCKQKYPDEPGRFAKLLLRLPALRSIGLKCLEHLFFFKLIGDTPIDTFLMEMLEAPHQLA	improved non-steroid ligand sensitivity
V462L: HsRXRβ ligand binding domain substitution mutant (protein, listed as Homo sapiens, ligand binding domain only) MSWAARPPFLPQRHAAGQCGPVGVRKEMHCGVASRWRRRRPWLDPAAAAAAAVAGGEQQTPEPEPGEAGRDGMGDSGRDSRSPDSSSPNPLPQGVPPPSPPGPPLPPSTAPSLGGSGAPPPPPMPPPPLGSPFPVISSSMGSPGLPPPAPPGFSGPVSSPQINSTVSLPGGGSGPPEDVKPPVLGVRGLHCPPPPGGPGAGKRLCAICGDRSSGKHYGVYSCEGCKGFFKRTIRKDLTYSCRDNKDCTVDKRQRNRCQYCRYQKCLATGMKREAVQEERQRGKDKDGDGEGAGGAPEEMPVDRILEAELAVEQKSDQGVEGPGGTGGSGSSPNDPVTNICQAADKQLFTLVEWAKRIPHFSSLPLDDQVILLRAGWNELLIASFSHRSIDVRDGILLATGLHVHRNSAHSAGVGAIFDRVLTELVSKMRDMRMDKTELGCLRAIILFNPDAKGLSNPSEVELLREKVYASLETYCKQKYPEQQGRFAKLLLRLPALRSIGLKCLEHLFFFKLIGDTPIDTFLMEMLEAPHQLA	improved non-steroid ligand sensitivity
G321L/P322R/G323V: HsRXRβ ligand binding domain triple substitution mutant (SEQ ID NO: 2) (protein, listed as Homo sapiens) MSWAARPPFLPQRHAAGQCGPVGVRKEMHCGVASRWRRRRPWLDPAAAAAAAVAGGEQQTPEPEPGEAGRDGMGDSGRDSRSPDSSSPNPLPQGVPPPSPPGPPLPPSTAPSLGGSGAPPPPPMPPPPLGSPFPVISSSMGSPGLPPPAPPGFSGPVSSPQINSTVSLPGGGSGPPEDVKPPVLGVRGLHCPPPPGGPGAGKRLCAICGDRSSGKHYGVYSCEGCKGFFKRTIRKDLTYSCRDNKDCTVDKRQRNRCQYCRYQKCLATGMKREAVQEERQRGKDKDGDGEGAGGAPEEMPVDRILEAELAVEQKSDQGVELRVGTGGSGSSPNDPVTNICQAADKQLFTLVEWAKRIPHFSSLPLDDQVILLRAGWNELLIASFSHRSIDVRDGILLATGLHVHRNSAHSAGVGAIFDRVLTELVSKMRDMRMDKTELGCLRAIILFNPDAKGLSNPSEVEVLREKVYASLETYCKQKYPEQQGRFAKLLLRLPALRSIGLKCLEHLFFFKLIGDTPIDTFLMEMLEAPHQLA	improved ligand sensitivity
E472D: HsRXRβ ligand binding domain substitution mutant (protein, listed as Homo sapiens, ligand binding domain only) MSWAARPPFLPQRHAAGQCGPVGVRKEMHCGVASRWRRRRPWLDPAAAAAAAVAGGEQQTPEPEPGEAGRDGMGDSGRDSRSPDSSSPNPLPQGVPPPSPPGPPLPPSTAPSLGGSGAPPPPPMPPPPLGSPFPVISSSMGSPGLPPPAPPGFSGPVSSPQINSTVSLPGGGSGPPEDVKPPVLGVRGLHCPPPPGGPGAGKRLCAICGDRSSGKHYGVYSCEGCKGFFKRTIRKDLTYSCRDNKDCTVDKRQRNRCQYCRYQKCLATGMKREAVQEERQRGKDKDGDGEGAGGAPEEMPVDRILEAELAVEQKSDQGVEGPGGTGGSGSSPNDPVTNICQAADKQLFTLVEWAKRIPHFSSLPLDDQVILLRAGWNELLIASFSHRSIDVRDGILLATGLHVHRNSAHSAGVGAIFDRVLTELVSKMRDMRMDKTELGCLRAIILFNPDAKGLSNPSEVEVLREKVYASLDTYCKQKYPEQQGRFAKLLLRLPALRSIGLKCLEHLFFFKLIGDTPIDTFLMEMLEAPHQLA	improved ligand sensitivity
G500S: HsRXRβ ligand binding domain substitution mutant, glycine to serine at 500 (protein, listed as Homo sapiens, ligand binding domain only) MSWAARPPFLPQRHAAGQCGPVGVRKEMHCGVASRWRRRRPWLDPAAAAAAAVAGGEQQTPEPEPGEAGRDGMGDSGRDSRSPDSSSPNPLPQGVPPPSPPGPPLPPSTAPSLGGSGAPPPPPMPPPPLGSPFPVISSSMGSPGLPPPAPPGFSGPVSSPQINSTVSLPGGGSGPPEDVKPPVLGVRGLHCPPPPGGPGAGKRLCAICGDRSSGKHYGVYSCEGCKGFFKRTIRKDLTYSCRDNKDCTVDKRQRNRCQYCRYQKCLATGMKREAVQEERQRGKDKDGDGEGAGGAPEEMPVDRILEAELAVEQKSDQGVEGPGGTGGSGSSPNDPVTNICQAADKQLFTLVEWAKRIPHFSSLPLDDQVILLRAGWNELLIASFSHRSIDVRDGILLATGLHVHRNSAHSAGVGAIFDRVLTELVSKMRDMRMDKTELGCLRAIILFNPDAKGLSNPSEVEVLREKVYASLETYCKQKYPEQQGRFAKLLLRLPALRSISLKCLEHLFFFKLIGDTPIDTFLMEMLEAPHQLA	improved ligand sensitivity
T473E: HsRXRβ ligand binding domain substitution mutant (protein, listed as Homo sapiens, ligand binding domain only) MSWAARPPFLPQRHAAGQCGPVGVRKEMHCGVASRWRRRRPWLDPAAAAAAAVAGGEQQTPEPEPGEAGRDGMGDSGRDSRSPDSSSPNPLPQGVPPPSPPGPPLPPSTAPSLGGSGAPPPPPMPPPPLGSPFPVISSSMGSPGLPPPAPPGFSGPVSSPQINSTVSLPGGGSGPPEDVKPPVLGVRGLHCPPPPGGPGAGKRLCAICGDRSSGKHYGVYSCEGCKGFFKRTIRKDLTYSCRDNKDCTVDKRQRNRCQYCRYQKCLATGMKREAVQEERQRGKDKDGDGEGAGGAPEEMPVDRILEAELAVEQKSDQGVEGPGGTGGSGSSPNDPVTNICQAADKQLFTLVEWAKRIPHFSSLPLDDQVILLRAGWNELLIASFSHRSIDVRDGILLATGLHVHRNSAHSAGVGAIFDRVLTELVSKMRDMRMDKTELGCLRAIILFNPDAKGLSNPSEVEVLREKVYASLEEYCKQKYPEQQGRFAKLLLRLPALRSIGLKCLEHLFFFKLIGDTPIDTFLMEMLEAPHQLA	improved non-steroid ligand sensitivity

From patent US10087231B2, “Substitution mutant receptors and their use in an ecdysone receptor-based inducible gene expression system” (Intrexon Corporation, priority 2001, dated 2018)
